Measured values from a protein production outcome set (Wang et al. 2014).

Assay: label from the status in PepcDB records
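Also: failed if final PepcDB status was selected cloned or expressed and not failed if soluble or beyond.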

| Sequence | protein production |
| --- | --- |
| MKLLENSRFEALSSQLCVETGDAQIIGRIESYSCKMAGDDKHMFKQFCQEGEPHVLEALSPPQSSSAPSPNLLGKSGEDAENPLSDKCCRKTLFYLITTLNESFRPDYDFSAARAHEFSREPSANWVANSVNSSLYSAVGEQFNTLGPELWTAIDQEINLQGCDIYSYNPDLDSDPFGEEGSLWSFNYFFYNKKLKRILFFTCRSVSVLSSYGRSGLDNELDMELDDEEELDGFMEDRIPRALCV | failed |
| MISRQQKMTFKEIKDGEMEERDILLTGFYNVRLNSVQEARLTYNLPNDQTVKFGFDGNGYSYGSDFWYIYNRTAQLGKEISSHLDENASKWIEEAGQKGYTTGNQAKVGAIACLPSYLSDAESSSHLAFVEYLNSDGSFIVSEMPSPNILNWRLIQPQSKMTFIYL | failed |
| MHTALINHIRKFIFLTDEDAGTLSAFFQLKKVRKKETLLKTGEICRINYFVVKGCLRLFFIDEKGIEQTTQFAIENWWLSDYMAFQKQQPADFYIQSVENCELLSITYTEQENLFERIPALERYFRLVYQKSFAAAQLRSKFQHMYSKEEQYHNFSSRFPEFIQRVPQYLLASYLGFTPEYLSEIRKKYIS | not failed |
| MIDVINNQAFHLHNDQISYICALLPNGQLGHLYFGPRLSLTKNDLAYLSQGSSPFAWMANFSDDQEFALGDAQQEYPVYGTGDFRQGSLSVTQDDMPIYPNFVFKDDQLTHTKTRDLHHPTSFGNPALTDVLTIHLEDKTAQLLLTLQYTIFADSAAIVRSATLTNQGTAPVMIQRMLSGVLNLPQGRYDVVHLSGNWAKERHIQTQPLTQGTFSVESLRGASSHEQNPFVALHAAGQPFAAGDTYGANLIYSGNFLDSTEVNEWDQTRLLTGIHPASFSWRLDPKTSFTTPETVFSYSSGGLAGLAQANQRFVARHIIDPQWRQKQRPVVLNSWEATYFDLNEKKLLKLAALGKQVGVDCFVLDDGWFGTRDNDLSSLGDWFTNKHKFPDGLGHFAQEIHAMGLQFGLWFEPEMVSPRSQFFQAHPNWVVRPKKGRISITRNQYVLDFSNPAVVNNIFEQMQKVITETNLDYVKWDLNRSITEAFSPYLEKIGHPQGEFFHRYVQGVYTLYQKLLTAFPHLLIEGCAGGGGRFDLGILFYSPQIWTSDDSDAIERLAIQSGMALAYPLSCMSNHVTAVPNEQVGRSTPLVTRFRVAAFGILGYELDLTKLDARTLATIKAQIAYYHALQPLVLKGDFSLLLPRQSNGQNQVAWLLSAHDRKHLVLGFFRVLADADSRTVQYMKVPLAKSDTPYWVNQHTGPISGDVLQRVGVRLPVQFNGANRAQAQLIGDYQSVLLTFDSVASLDHILEHHHHHH | failed |
| MGNCVFKGNGGSRKLYDKDDSLIKVVTPNGGVMELHPPIFAEFITNEFPGHVIHDSLSLRHSSPPLLHGEELFPGNIYYLLPLSSSAAATAQLDSSDQLSTPYRMSFGKTPIMAALSGGGCGVWKVRLVISPEQLAEILAEDVETEALVESVRTVAKCGGYGCGGGVHSRANSDQLSVTSSFKGKLW | not failed |
| MKLTIIRLQHFSDQDRIDLGKIWPSQDLSTLTLDENHRLYAAHFNERLLGAVRVTLRGVEGELSDLCVREVTRRRGVGQYLVEETLRDNPAINSWRVADHGVEDRGVMAAFMQALGFSAQQNGWEKH | failed |
| MMTQQELEKYLWGAATTLRGTIDAGDYKQYIFPLMFFKRICDVYDEEFENALAESDGDLEYAAFAENHHFQVPKGAHWNDVRETTTNIGLALQNAMRAIEKANPDTLEGIFGDASWTNKERLSDAMLTNLIEHYSEQTLNLKNVPDDKLGNAYEYLIKEFADDSGHTAAEFYTNRTVVKLMTMIMAPQPGESVYDPTCGSGGLLLNCALHLKDEGKEYRTLKLYGQEINLLTSAIARMNMFMHGIEEFDIVRGNTLSNPGLLENDELKKFNVILANPPYSIKSWDRKAFESDPYGRNVWGTPPQGCADYAFQQHIQKSLDLGNGRSISLWPHGILFRDAETAMRRKMIEQDQVECVIGLGPNLFYNSPMEACLLITKTNKIESKKDKILFINAVKEVRQDKNIGYLDQVHIDKIFNAYNKFENEDSFAVLVDKQEVLDKKANMAINLYIRPDSLVSSEEACFATAYQEWQQSSGDLKQSMEKLFKELV | not failed |
| MYMILELLNIIGIIAFTISGSLKGTNKGLDIFGVVTLGVITSYAGGIIADILLGIYPPQILKELNYLLLSVGISIFVFYFYKWLQTNPIKMIIAISDAVGLSTFATLGASLAYSYGLNPISVGLIAAIVGTGGGVIRDVLVNEIPMVLTKEIYATAALLSGFIYYFTTPYLHHDSLFVAFLGSFLLRILSIKYNFNLPKREDNKS | failed |
| SGTFDSQCHECFESKERWYEIGPTDLLERKGSLTLRSHHKKYSEPVLVYSWHRNREAFPKDYDIESLETVKNLCMSTYKRFGSDSPRWMSEAREQMAQVLVNKDLVEKKKTGLLDEETLCPGILERDPELPPTGFRDVPMESPPDPRKPCFSTTYSEDFTPQYEYPPPACPRREEYSIVHRKCRSQFTDLNGSKRLGINTWHDESGIYANSEAKQKLYALARNPIVPF | failed |
| MARSVVVSAEAVYSHEGEYVGDHVLVDEGLVKSISRGEPHVSVGKRVAVKGFLLPPLVDAHLHMRSLGASFRIVNLKGASSPEEVAKRLAAANSPIAVGRGWNEEEFRPGSRLDRRILDSYLGEKPALAVRICGHVAVANSAFIRESGVDKLFPNLVDRERGLLLEDAVSYAVSVAMKTYNNEELLRDAASALASVGVFGVSSMACSEEEVRALSLIGDALEVRVACYLRRGVEPPPKRAGARWSIVGVKLFADGSLGGRTAYLRRPYISGENEGWRGLKLLSSRDIAEEAVSNSHRGLATAVHAIGDAALDEVLEGFSNAISRGVEPGMLRVEHASLAWPNQIDRLASLRVWTVVQPLFRVSDWWLESRVGSDMLQAAYPFASMLRAGVKLALSTDAPVETYDPAETFKAAVGLCSSRLCRESESLTPRETLKLYTLNSALASGGPVAWLGRLRRGAPALFAVANVDVLNSGRKELEKLKFRGLNLAK | failed |
| MMFGAIIQQIVLGISLAAPVGPINIEMLKRGIERGFWHAWVVGIGGMTADILFMLLIYFGLSSLFMYTYVQAFMYCTGFFLLFYLGFQSVKQGISQSNMEYKKEEVGGLKQSFMAGFLIAISNPLNLVFWFGIYGSTLSSLLTKVTKQEAFLYSLCIIVGIILWNVNIAFSVHFGRTLLKQKALGYITAGAGIILVGYSIHFAYKALQLFT | failed |
| MTEIQRLLSETIDDLNIREKRDNRPRFSISFIRKHPGLFIAMYAAWFATLAVMLQSETLVGSVWLLVVLFIAFNGFFFFDIAPRYHYNDIDVLDLRVCYNGEWYNTRFVPPTLIETILQSPQVDNEHKVQLQKMVARKGELSFYDIFTLARAEASR | failed |
| QDISQRKKEQEALAESESRFQELADLLPQPVFELDMKGNIIYTNSLGFQAFGYTKDDLEKGVSSLALFVPEDRETVLQNIENRLKNIPFENHEYTALRKDGTTFPILIYTARINRGGVPVGIRGIVLDITDRKQAEENLVQLNQNLELRVEERTRELEVTHQQMILQEKLASIGQLAAGIAHELNNPINFVRINFATLQEDVSDLHTLLKEYRLVTEKLEDR | failed |
| MEIHYAAKQDKCLVRPVIRDHTGSQSYRSTTSILTDHLRRNHHSHGAIASRDYLSYSWNSQLRRFSSEGDGNNASEDSRFPLNKDKMGKEKSTVGVEHFDSHAQLGVQDQIEWLNNEKRASESRKESPFLNKRERLKNEFLRRIQPWETIQLSWESFPYYVHEHTKDTLVECVSSHIKQKSMTSKYGARLDSSSGRILLQSVPGTELYRERLVRALARDTQVPLLVLDSSVLAPYDFADDYNEESESDDDIAESDQCTSQSEAEEETDGDNDDTSSSETKIEGTDDEERYLEISKEVLKKLGADIEDIEKRMSEQLYGSSEVSEAAAVDQDDKAKRPLKKGSQFVTCALCYLHQMMSV | failed |
| MDLLKNIFKGDKVIWIIFLCLCLISIIEVFSAASTLTYKSGDHWGPITQHSIILMVGAVVVVLMHNIPYKWFQVFPVFLYPISVVLLAFVTLMGVITGDRVNGAARWMSFMGLQFQPSELAKMAVIIAVSFILSKKQDDEGANPKAFKYIMILTGLVCMLIAPENLSTAMLLFGVVVLMMFIGRVAFKKLAMLLGGLALVGCLGAVFLLAIPKDTDIPFLHRFDTWKSRITNFTEKEEVPAAKFDIDKDAQIAHARIAIATSNVIGKAPGNSIQRDFLSQAFSDFIFAIIIEELGLVGGAFVVILYIWLLVRTGRIAQKCERTFPAFLVMGIALMLVSQAILNMMVAVGLFPVTGQPLPLISKGGTSTLINCAYIGMILSVSRYTAYLEEKKENPAPLLTQSEGNETIASEAQTAAEPTAEVLNSDAKFEE | failed |
| MSFKDLREFIDHLEQKGRLKRITHPVDPAYEMTEISDRTLRAGGPALLFENPIGYNVPVLTNLFGTPERVAIGMGREDVKELREVGKLLAYLKEPEPPKGFKDALEKLPVFKQVLNMPAKRLRKAPCQDIVWQGDEVDLDKIPVMSCWAEDVAPLLTWGLTVTKGPNKKRQNLGIYRQQKIAKNKIIMRWLAHRGGALDLRDWMETNPGKPFPVSVAFGADPATILGAVTPVPDTLSEYAFAGLLRGSKTEVVKSISNDLEVPASAEIVMEGYIDPNEFADEGPYGDHTGYYNEKEKHHVFTITHITMRKDPIYHSTYTGRPPDEPAVLGVALNEVFVPILQKQFPEIEDFYLPPEGCSYRMAVVTMKKQYPGHAKRVMMGVWSFLRQFMYTKFVIVCDESVNARDWNDVVKAMTEHMDPVRDTLMIDNTPIDSLDFASPVVGLGSKMGLDATIKWDAELATRPQISKQDSKVITEADLESLKQQRPEIIDIYLPPTTNNRFAVVTMKKDQAGQSQALMEYLWDFFAQYTDNKFVILCDEDVNARDWNDIIWAVTTRMDPDRDTTRVSGKAESSSKLGLDATNKFESEVTREWGTPIKKDPKLVAKVDEIWDQLGIL | failed |
| MGIENFTAKIVGLSIVSLLVVLMFLYKLIYIIPLIFIVLLVFQSEKKIFAFLSKNTKQIQPYSIEDGVFYNEKNASAVLIIDDIQMDYKDFTNSNLRSFISSFHKILDIAKDINIVLKRESLDKNVYIESLSQKIQALRIMIDSDPSNEKAKRKLELMETIISRIESGENPFRYEMYIIINSRDKNSALSTASMIRQGLEGLGIKTRLATLHEIQKLVRDFFHSKLNLNKIALPTQIPYLTPISVEKKPKSSIIIDGVLLGKDINNNGLVFWNITKSQNSHLLIVGPTGSGKTEFLIWLSTILNLIYGGTVILFDVKGDIKYRLSMYKVPFQLINPLFYRLGLLDEYDIPIRIKLLQIEKILLNSFRLSKFNSSILYNYLNRLIDISYLKYRIKWKDLEKYLSEIDDVQLKYYLSKLINILSSMEDSELPPLLHGVNENEINLIDLTLIKSEEIKRLIIYTLIQELYNKFSLEKIYDKPRVFLVLDEAWTILKNESEDYPIVADLIKRGRGYGISIIMATQNLEDLGDLANIYLDNIGVSVFMNNGDKKFWEEIRRFVNVDNDTLSNNLIFMNRGEALVRFLGDPRPVIIKLNTLAGSSF | failed |
| RNGGTIGGADIIAKLLEDKLGLQLNQALLGIDLFVMIVSLTYISLPQMMYALIASFMYGQIVRLVQQGGYSARGIFIVSEQAEKIARFIMDELGRGVTYLTGEGAYSGRRKKVIYVALGRRDIRELKAFLTQVDPNAFITYFDVNEVNSPEFLTIKSKYHKKRK | failed |
| MGSLERSKKKAQVWKKAVIHFSLCFVMGFFTGFAPAGKASFFSNFETTSYTSTKSPIPPQPFENATYTQHSLLNRTLINSQSQAPAPAESREAEGETRSLSEKEDENQVKVTPRGLVIVVTPIITKDRYKNVLLRRMANTLRLVPPPLLWIVVEKHSDGEEKSSSTMLRKTGIMYRRIVFKEDFTSLESELDHQRNLALRHIEHHKLSGIVHFAGLNNIYDLDFFVKIRDIEVFGTWPMALLSANRKRVVVEGPVCESSQVLGWHLRKINNETETKPPIHISSFAFNSSILWDPERWGRPSSVEGTKQDSIKYVKQVVLEDDTKLKGLPAQDCSKIMLWRLKFPTRTRLST | failed |
| MADQNRSEEKTVKSPNVFERVKEEIEAMGHHEKSKSRHHDKETHGTSDDIDESTPIDYVKGPGFFQRLKEEIEAIFNAVTPKRSSKK | failed |
